The RNAGym collection of RNA variant scans (doi:10.7554/elife.80360)

B1: CPEB3 Ribozyme (parent)
chain: GGGGGCCACAGCAGAAGCGUUCACGUCGCGGCCCCUGUCAGAUUCUGGUGAAUCUGCGAAUUCUGCUGU

Variants of: B1
Experiment: self-cleavage, relative activity (ratio to wild type); higher = more cleavage; co-transcriptional

| Variant | self-cleavage |
| --- | --- |
| A15G G58U | 0.978 |
| A15G G65C | 0.825 |
| A15G G65U | 0.784 |
| A15G G68A | 1.02 |
| A15G G68C | 1.05 |
| A15G U20A | 0.092 |
| A15G U20G | 0.161 |
| A15G U21A | 0.956 |
| A15G U21G | 0.578 |
| A15G U26A | 0.905 |
| A15G U26C | 1.03 |
| A15G U26G | 0.953 |
| A15G U36A | 0.203 |
| A15G U36C | 0.966 |
| A15G U36G | 0.152 |
| A15G U38C | 0.97 |
| A15G U38G | 0.157 |
| A15G U43C | 1.01 |
| A15G U46C | 0.974 |
| A15G U49A | 0.986 |
| A15G U49C | 0.968 |
| A15G U49G | 0.95 |
| A15G U53C | 0.859 |
| A15G U53G | 0.958 |

| Variant | self-cleavage |
| --- | --- |
| A15G U55A | 0.892 |
| A15G U55C | 0.869 |
| A15G U55G | 0.85 |
| A15G U61A | 0.982 |
| A15G U61C | 0.892 |
| A15G U61G | 0.822 |
| A15G U62A | 0.906 |
| A15G U62C | 0.956 |
| A15G U64G | 0.918 |
| A15G U67A | 0.971 |
| A15G U67C | 0.943 |
| A15G U67G | 0.996 |
| A15G U69A | 1.04 |
| A15G U69C | 1.05 |
| A15G U69G | 1.05 |
| A15U | 0.928 |
| A15U A16C | 0.135 |
| A15U A16U | 0.798 |
| A15U A23C | 0.723 |
| A15U A23G | 0.658 |
| A15U A23U | 0.95 |
| A15U A40C | 0.287 |
| A15U A40G | 0.697 |
| A15U A42C | 0.594 |

| Variant | self-cleavage |
| --- | --- |
| A15U A42U | 0.613 |
| A15U A51C | 0.79 |
| A15U A51G | 0.916 |
| A15U A52C | 0.889 |
| A15U A52U | 0.804 |
| A15U A59C | 0.42 |
| A15U A59G | 0.856 |
| A15U A59U | 0.331 |
| A15U A60C | 0.298 |
| A15U A60G | 0.416 |
| A15U C18A | 0.122 |
| A15U C18G | 0.186 |
| A15U C18U | 0.338 |
| A15U C22A | 0.225 |
| A15U C22G | 0.126 |
| A15U C22U | 0.107 |
| A15U C24G | 0.214 |
| A15U C24U | 0.28 |
| A15U C27A | 0.0897 |
| A15U C27G | 0.168 |
| A15U C29A | 0.245 |
| A15U C29G | 0.169 |
| A15U C32A | 0.285 |
| A15U C32G | 0.247 |

| Variant | self-cleavage |
| --- | --- |
| A15U C33A | 0.493 |
| A15U C33U | 0.912 |
| A15U C34A | 0.513 |
| A15U C34G | 0.372 |
| A15U C34U | 0.891 |
| A15U C35U | 0.776 |
| A15U C39A | 0.309 |
| A15U C39G | 0.622 |
| A15U C45G | 0.823 |
| A15U C54A | 0.468 |
| A15U C54G | 0.412 |
| A15U C54U | 0.845 |
| A15U C57A | 0.298 |
| A15U C57G | 0.259 |
| A15U C63A | 0.832 |
| A15U C63U | 0.794 |
| A15U C66A | 0.324 |
| A15U C66G | 0.516 |
| A15U C66U | 0.643 |
| A15U G17A | 0.159 |
| A15U G17U | 0.221 |
| A15U G19A | 0.13 |
| A15U G19C | 0.132 |
| A15U G19U | 0.127 |

| Variant | self-cleavage |
| --- | --- |
| A15U G25U | 0.148 |
| A15U G28C | 0.206 |
| A15U G28U | 0.167 |
| A15U G30A | 0.361 |
| A15U G30C | 0.287 |
| A15U G30U | 0.184 |
| A15U G31A | 0.248 |
| A15U G31C | 0.183 |
| A15U G31U | 0.205 |
| A15U G37A | 0.219 |
| A15U G37C | 0.179 |
| A15U G37U | 0.176 |
| A15U G41C | 0.257 |
| A15U G41U | 0.378 |
| A15U G47A | 0.95 |
| A15U G47C | 0.989 |
| A15U G47U | 0.919 |
| A15U G48A | 0.925 |
| A15U G50C | 0.795 |
| A15U G50U | 0.858 |
| A15U G56A | 0.648 |
| A15U G56C | 0.402 |
| A15U G58A | 0.754 |
| A15U G58C | 0.821 |

| Variant | self-cleavage |
| --- | --- |
| A15U G58U | 0.963 |
| A15U G65C | 0.433 |
| A15U G68C | 0.929 |
| A15U U20A | 0.106 |
| A15U U20C | 0.211 |
| A15U U20G | 0.132 |
| A15U U21C | 0.592 |
| A15U U21G | 0.157 |
| A15U U26A | 0.34 |
| A15U U26C | 0.634 |
| A15U U26G | 0.424 |
| A15U U36A | 0.194 |
| A15U U36G | 0.181 |
| A15U U38A | 0.548 |
| A15U U38G | 0.178 |
| A15U U43A | 0.479 |
| A15U U43C | 0.731 |
| A15U U43G | 0.429 |
| A15U U44A | 0.705 |
| A15U U46C | 0.848 |
| A15U U49A | 0.931 |
| A15U U49C | 0.817 |
| A15U U49G | 0.884 |
| A15U U53A | 0.468 |

| Variant | self-cleavage |
| --- | --- |
| A15U U53C | 0.413 |
| A15U U53G | 0.566 |
| A15U U55A | 0.412 |
| A15U U55C | 0.418 |
| A15U U61C | 0.686 |
| A15U U61G | 0.854 |
| A15U U62C | 0.946 |
| A15U U62G | 0.991 |
| A15U U64A | 0.683 |
| A15U U64C | 0.654 |
| A15U U64G | 0.549 |
| A15U U67A | 0.889 |
| A15U U67G | 0.87 |
| A15U U69G | 0.998 |
| A16C | 0.373 |
| A16C A23C | 0.277 |
| A16C A23G | 0.0786 |
| A16C A23U | 0.549 |
| A16C A40C | 0.118 |
| A16C A40U | 0.0836 |
| A16C A42C | 0.245 |
| A16C A42U | 0.102 |
| A16C A51C | 0.217 |
